# Laboratory results: US20250064890A1, “PROTEIN COMPOSITIONS FOR THE TREATMENT OF INFLAMMATORY DISEASES” (Unichem Laboratories Limited, priority 2021, published 2025)
# B1: SEQ ID NO 2: recombinant lectin, variant of the S. rolfsii lectin amino acid sequence (reported as Rec-2 in WO 2010/095143) (protein)
# chain: TYKITVRVYQTNPDAFFHPVEKTVWKYANGGTWTITDDQHVLTMGGSGTSGTLRFHADNGESFTATFGVHNYKRWCDIVTNLAADETGMVINQQYYSQKNREEARERQLSNYQVKNAKGRNFQIVYTEAEGNDLHANLIIG
# What was measured:
# [1] = tested on: oral (buccal) mucosa cells (TR146); assay: Restoration of mitochondrial membrane potential (JC-1) against radiation induced damage; assay type: cell-based, human; settings: for MMP: red/green JC-1 fluorescence ratio
# Method: Oral buccal mucosal cells (TR146) were incubated overnight in 5% CO2 incubator at 37° C. for 24 h. […] After 24 h of treatment, cells were exposed to damage (5-FU 5 mM) for 1.25 h for chemotherapy induced inflammation and exposed to gamma radiation (3.5 kGy) using Cobalt 60 for radiation induced inflammation. After the exposure, the anti-apoptotic effect of SEQ ID NO 2 was determined by restoration of mitochondrial membrane depolarization by JC-1 staining and reduction in apoptotic cell populations (Annexin positive and subG0/G1 cells in cell cycle analysis).
# After incubation, the supernatants were discarded and 100 μl of JC1-dye solution (prepared by diluting 1 mM DMSO stock into 10 μM in 1×PBS) was added to each well. The cells were then incubated with the dye in CO2 incubator at 37° C. for 15 min, after which the supernatant was removed, and the cells were washed twice with 1×PBS. 100 μl of 1×PBS was finally added to each well. Red fluorescence (excitation 550 nm, emission 600 nm) and green fluorescence (excitation 485 nm, emission 535 nm) were measured using Biotek Synergy HT plate reader. The mitochondrial membrane potential (Δψm) was calculated as the ratio of intensity of red fluorescence to intensity of green fluorescence.
# The percentage increase/restoration in mitochondrial membrane potential (MMP) was calculated as: % Increase=[(R−X)/R]*100 • Where, X=Δψm corresponding to TI+5-FU treated cells or TI+radiation treated cells; R=Δψm corresponding to control cells (FU damaged or Radiation damaged alone)
# [2] = tested on: IL-1β; assay: Multiplex analysis, chemotherapy (5-FU), TR146; assay type: cell-based, human; settings: for IL-1-β against chemotherapy induced levels: 5-FU, in words
# Method: (§1) Oral buccal mucosal cells (TR146) cells were incubated overnight at 37° C. in 5% CO2 incubator. […] The cells were then stimulated with 5-FU (10 mM) for another 24h for chemotherapy and with gamma radiation (3.5 kGy) using Cobalt 60 for radiotherapy. After 24 h, cell culture supernatants were collected from each well and stored at −20° C. till multiplex analysis. For NF-kB estimations, cell lysates were prepared. Levels of biomarkers were estimated using Magpix® multiplex machine. The cells treated with Amifostine (along with 5-FU or radiation) were considered as positive control (PC). Untreated cells (5-FU or radiation alone treated) were used as negative control (NC).
# (§2) The percent modulation in each sample was determined as follows:
# (§3) [{Concentration of biomarkers (pg/ml) in Control cells (5-FU or radiation alone treated)−Concentration of biomarkers (pg/ml) in SEQ ID NO: 2+5-FU or radiation treated cells)}/Concentration of biomarkers (pg/ml) in Control cells (5-FU or radiation alone treated)]*100
# [3] = tested on: IL-6; assay: Multiplex analysis, chemotherapy (5-FU), TR146; assay type: cell-based, human; settings: for IL-6 against chemotherapy induced levels: 5-FU, in words
# Method: as §1, §2, §3
# [4] = tested on: MMP-3; assay: Multiplex analysis, chemotherapy (5-FU), TR146; assay type: cell-based, human; settings: for MMP-3 against chemotherapy induced levels: 5-FU, in words
# Method: as §1, §2, §3
# [5] = tested on: TNF-α; assay: Multiplex analysis, chemotherapy (5-FU), TR146; assay type: cell-based, human; settings: for TNF-α against chemotherapy induced levels: 5-FU, in words
# Method: as §1, §2, §3
# [6] = tested on: VEGF; assay: Multiplex analysis, chemotherapy (5-FU), TR146; assay type: cell-based, human; settings: for VEGF against chemotherapy induced levels: 5-FU, in words
# Method: as §1, §2, §3
# [7] = tested on: NF-kB; assay: Multiplex analysis, chemotherapy (5-FU), TR146 cell lysates; assay type: cell-based, human
# Method: as §1, §2, §3
# [8] = tested on: IL-6; assay: Multiplex analysis, radiotherapy, TR146; assay type: cell-based, human
# Method: as §1, §2, §3
# [9] = tested on: TNF-α; assay: Multiplex analysis, radiotherapy, TR146; assay type: cell-based, human
# Method: as §1, §2, §3
# [10] = Body weight change in 5-FU induced OM hamsters; assay type: in vivo, golden Syrian hamsters; settings: Day 4 to Day 12, with respect to Day 4
# Method: In-vivo experiments conducted in healthy golden Syrian hamsters wherein animals were grouped as below:
# To induce OM, animals were administered (except normal control) 5-Fluorouracil (5-FU) by intraperitoneal route at doses of 60 mg/kg & 40 mg/kg respectively on first two days. On Day 4, under anesthesia, with aim of enhancing OM, mechanical irritation of the oral mucosa were done using wire brush. Treatment was initiated from Day 4 to Day 12. For group 3 animals 100 μl of vehicle comprising of standard drug Dexamethasone at 0.1 mg was instilled in buccal cheek pouch. For group 4, 5 and 6 animals 100 μl of vehicle comprising of SEQ ID NO. 2 at 0.25 mg, 0.5 mg & 1 mg, respectively was instilled in buccal cheek pouch. At the end of treatment period, cheek pouch of the hamsters was exposed, Mucositis scoring was carried out and images were captured. The animals were then humanely sacrificed, cheek pouch/jugular mucosa were isolated and used for biomarker estimation and histopathological investigation by using ELISA method and Hematoxylin and Eosin (H&E) staining, respectively.
# Body weight of each animal was recorded daily till the end of experiment. Percentage change in body weight of the animals was calculated by using formula with respect to Day 4.
# [11] = 0.01 μg/ml + Radiation (3.5 kGy)
# [12] = 100 μg/ml + Radiation (3.5 kGy)
# [13] = 0.1 μg/ml + Radiation (3.5 kGy)
molecule,measurement,setting,value
B1,MMP,[1]; [11],5.76
same,% Increase in MMP (with respect to control),[1]; 1 μg/ml + Radiation (3.5 kGy),36.6%
same,% Increase in MMP (with respect to control),[1]; 10 μg/ml + Radiation (3.5 kGy),17.8%
same,MMP,[1]; 10 μg/ml + Radiation (3.5 kGy),5.43
same,MMP,[1]; 50 μg/ml + Radiation (3.5 kGy),6.29
same,% Increase in MMP (with respect to control),[1]; [12],7.9%
same,MMP,[1]; [12],4.97
same,Percentage Inhibition IL-1β,[2]; 0.1 μg/ml + 5-FU (10 mM),5.5%
same,Percentage Inhibition IL-1β,[2]; 10 μg/ml + 5-FU (10 mM),3.6%
same,Percentage Inhibition IL-1β,[2]; 25 μg/ml + 5-FU (10 mM),11%
same,Percentage Inhibition IL-1β,[2]; 50 μg/ml + 5-FU (10 mM),29.1%
same,Percentage Inhibition IL-1β,[2]; 100 μg/ml + 5-FU (10 mM),23.5%
same,IL-1-β against chemotherapy induced levels,[2],lowering of levels
same,IL-1-β against chemotherapy induced levels,[2]; listed as test items,downregulation
same,Percentage Inhibition IL-6,[3]; 0.1 μg/ml + 5-FU (10 mM),5.4%
same,Percentage Inhibition IL-6,[3]; 10 μg/ml + 5-FU (10 mM),7.8%
same,Percentage Inhibition IL-6,[3]; 25 μg/ml + 5-FU (10 mM),18.2%
same,Percentage Inhibition IL-6,[3]; 50 μg/ml + 5-FU (10 mM),38.6%
same,Percentage Inhibition IL-6,[3]; 100 μg/ml + 5-FU (10 mM),42.2%
same,IL-6 against chemotherapy induced levels,[3],lowering of levels
same,IL-6 against chemotherapy induced levels,[3]; listed as test items,downregulation
same,Percentage Inhibition MMP-3,[4]; 0.1 μg/ml + 5-FU (10 mM),22%
same,Percentage Inhibition MMP-3,[4]; 10 μg/ml + 5-FU (10 mM),29.5%
same,Percentage Inhibition MMP-3,[4]; 25 μg/ml + 5-FU (10 mM),30.6%
same,Percentage Inhibition MMP-3,[4]; 50 μg/ml + 5-FU (10 mM),27.3%
same,Percentage Inhibition MMP-3,[4]; 100 μg/ml + 5-FU (10 mM),8.8%
same,MMP-3 against chemotherapy induced levels,[4],lowering of levels
same,MMP-3 against chemotherapy induced levels,[4]; listed as test items,downregulation
same,Percentage Inhibition TNF-α,[5]; 0.1 μg/ml + 5-FU (10 mM),13.3%
same,Percentage Inhibition TNF-α,[5]; 10 μg/ml + 5-FU (10 mM),10%
same,Percentage Inhibition TNF-α,[5]; 25 μg/ml + 5-FU (10 mM),10%
same,Percentage Inhibition TNF-α,[5]; 50 μg/ml + 5-FU (10 mM),13.3%
same,Percentage Inhibition TNF-α,[5]; 100 μg/ml + 5-FU (10 mM),6.6%
same,TNF-α against chemotherapy induced levels,[5],lowering of levels
same,TNF-α against chemotherapy induced levels,[5]; listed as test items,downregulation
same,Percentage Inhibition VGEF,[6]; 0.1 μg/ml + 5-FU (10 mM),25%
same,Percentage Inhibition VGEF,[6]; 10 μg/ml + 5-FU (10 mM),24.4%
same,Percentage Inhibition VGEF,[6]; 25 μg/ml + 5-FU (10 mM),28%
same,Percentage Inhibition VGEF,[6]; 50 μg/ml + 5-FU (10 mM),37.8%
same,Percentage Inhibition VGEF,[6]; 100 μg/ml + 5-FU (10 mM),41.7%
same,VEGF against chemotherapy induced levels,[6],lowering of levels
same,VEGF against chemotherapy induced levels,[6]; listed as test items,downregulation
same,Percentage Inhibition NF-kB,[7]; 0.1 μg/ml + 5-FU (10 mM),88.6%
same,Percentage Inhibition NF-kB,[7]; 10 μg/ml + 5-FU (10 mM),98.4%
same,Percentage Inhibition NF-kB,[7]; 25 μg/ml + 5-FU (10 mM),59.7%
same,Percentage Inhibition NF-kB,[7]; 50 μg/ml + 5-FU (10 mM),53%
same,Percentage Inhibition NF-kB,[7]; 100 μg/ml + 5-FU (10 mM),84.3%
same,Percentage Inhibition IL-6,[8]; [11],−0.2%
same,Percentage Inhibition IL-6,[8]; [13],3.1%
same,Percentage Inhibition IL-6,[8]; 1 μg/ml + Radiation (3.5 kGy),3.8%
same,Percentage Inhibition IL-6,[8]; 10 μg/ml + Radiation (3.5 kGy),7.7%
same,Percentage Inhibition IL-6,[8]; 25 μg/ml + Radiation (3.5 kGy),5.2%
same,Percentage Inhibition TNF-α,[9]; [11],43.2%
same,Percentage Inhibition TNF-α,[9]; [13],45.2%
same,Percentage Inhibition TNF-α,[9]; 1 μg/ml + Radiation (3.5 kGy),39.6%
same,Percentage Inhibition TNF-α,[9]; 10 μg/ml + Radiation (3.5 kGy),47.1%
same,Percentage Inhibition TNF-α,[9]; 25 μg/ml + Radiation (3.5 kGy),41%
same,TNF-α against radiation induced levels,"[9]; radiation, in words",downregulation
same,decrease of body weight,"[10]; G4, 0.25 mg/Animal in buccal cheek pouch",3.61%
same,decrease of body weight,"[10]; G5, 0.5 mg/Animal in buccal cheek pouch",4.36%
same,decrease of body weight,"[10]; G6, 1 mg/Animal in buccal cheek pouch",6.8%
